Source: the nanobody polyreactivity screen of Harvey et al. (2022)

Test: yeast display, Sf9 membrane polyspecificity reagent, FACS + sequencing; frameworks hold sequencing errors
Procedure, shortened: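 Polyreactivity labels are assigned by the sorting gate from which each nanobody was recovered. The gates were low and high (top ~1%), set on anti-HA fluorescence for expression and streptavidin fluorescence for reagent binding. Before sorting, galactose-induced (36–48 hours) yeast display cells were stained for 1 hour at 4 °C with 10% biotinylated, detergent-solubilized Sf9 membrane reagent.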

| Sequence | polyreactivity (PSR sort gate) |
| --- | --- |
| QVQLVESGGGLVQAGGSLRLSCAASGRIFDANAMGWYRQAPGKERELVAAITVSGGSTYYADSVKGRFTISRDNAKNTVYLEMNSLKPEDTAVYYCAKSLVPWWYKVDYDYWGQGTQVTVSS | low polyreactivity |
| QVQLVDSGGGLVQAGGSLRLSCAASGSTFITNTMGWDRQSPGKDRELVAAISQSGTRTYYANSVKGRFTISRDNAKNTVYLQMNSLKPEDTAVYYCAADRQRYTSSSRKGLGYCGQGTQVTVSS | high polyreactivity |
| PVQLVESRGGLVQAGGSLRLSCAASGIIFQRYAMGWYRQAPGKERELVAAINFSGGSTYYADSVKGRFTISRDNAKNTVYLQMNSLKPEDTSVYYCARAGRYAAYSPFYYWGQGTQVTVSS | high polyreactivity |
| QVQLVESGGGLVQAGGSLRLSCAASGRTFRYYTMGWYRQAPGTERELVAAITGGSRTNYADSVKGRFTISRDNAKNTVYLQMNSLKPEDTAVYYCAARRSYLLRYDYWGQGTQVTVSS | high polyreactivity |
| QVHLVDSGGGLVQAGGSLRLSCPASGLTFPSNSMGCYRQAPGKERELVAAISKRGGRTYYADSVKGRFTISRDNAKNTVYLQMNSLKPEDTAVYYCATLYAYPGTVQYAGYNYWGQGTQVTVSS | high polyreactivity |
| QVQLVESGGGLVQAGGSLRLSCAASGSTFVQYVMGWYRQAPGKERELVAAISSSGGSTYYADSVKGRFTISRDNAKNTVYLQMNSLKPEDTAVYDCAARRLPRPWTSTSDYWGQGTQVTVSS | high polyreactivity |
| QVQLVESCGGLVQAGGSLRLSCADSGLTMYGYARGWYRHAPGNERELVATLTRRGGSTYYADSVKGRFTISRDNAKNTVYLQMNSLKPEDPAVYYCAATYQHQNPQGVFSGGYYYWGQGTQVTVAS | high polyreactivity |
| QVQLVESGGGLVQAGGSLRLICAASGSIFTKYAMVWYRQAPGKERELVAAITWSGGRTYYADSVKGRYTISRDNAKNTVYLQMNSLKPEDTAVYYCAAELFRQGYYYWGQGTQVTVSS | high polyreactivity |
| QVQLVESGGGLVQAGGSLRLSCAASGSTFNINAMGWYRQAPGKERELVAAISSRGGSTYYADSVKGRFTISRDNAKNTVYLQMNSLKPEDTAVYYCAASPRRVENAGRVRLYYWGQGTQVTVSS | high polyreactivity |
| QVQLVESGGGLVQAGGSLRLSCAASGFTFIRNAMGWYRQAPGKDRELVAAISRSGGSTYYADSVKGRFTISRDNAKYTVYLQMNSLKPEDTAVYYCPVTLYLKWQGGAYDYWGQGTQVTVSS | low polyreactivity |
| QVQLVESGGGLVQAGGSLRLSCAASGSIFDYYAMGWYRQAPGKERELVAAISSSGDTTYYADSVKGRFTISRDTAKNTVYLQMNSLKPEDTAVYYCAARVRGYRHASNYYWGQGTQVTVSS | high polyreactivity |
| EVQLVESRGGLVQAGGSLRLSCAASGRIFRVYTMGWYRQAPGKERELVAAISRGGTTTYADSVKGRFTISCDNAKNTVYLQMNSLKPEDTAVYYCNARGWFRGEFDYWGQGTQVTVSS | high polyreactivity |
| QVQLVESGGGLVQAGGSLRLSWAASGFIFDPNAMGWYRQAPGKERDLVAAISSSGGRTYYADSVKGRFTISRDNAKNTVYLQMNSLKPEDTAVYYCATDTSVQGQEYDYWGQGTQVTVSS | low polyreactivity |
| QVQLVESGGGLVQAGGSLRLSCAASGSIFYINAMVWYRPAPGTERELLAAITSGGTYYADSVKGRFTISRDNAKNTVYLQMNSLKPEDTAVDYCAADREGTPLFDYWGQGTQVTVSS | low polyreactivity |
| QVQLVESGGGLVQAGGSLRLSCAASGRIFAPYDMGWYRQAPGKERELVASITSGGSTNYTDSVKGRFTISRDNAKNTVYLQMNSLKPEDTAVYYCNTAKISEPTDPLQRVWGGTYDYWGQGTQVTVSS | low polyreactivity |
| QVQLVESGGGLVQEGGSLRLSCAASGFIFAWYDMGWYRQAPGKERELVAAISYYGGSTYYADSVKGRFTISRDNAKNTVYLQMNSLKPVDTAVYYCIKVSRGGSYGDAFDYWGQGTQVTVSS | high polyreactivity |
| QVQLVESGGGLIQAGGSLRLSCAASGSTFANNAMGWYRQAPGKERELVASITRSGSTYYADSVKGRFTISRDNAKNTVYLQMNSLKPEDTAVYYCAADSRRYGVRFDYWGQGTQVTVSS | low polyreactivity |
| QVQLVESGGGLVQAGGSLRLSCAASGRTFVNYAMGWYRQAPWKERELVAAITWSSGRTYYADSVKGRFTISRDNAKNTVYLQMNSLKPEDTAVYYCAAVGRYSGYDYWGQGTQVTVSS | high polyreactivity |
| QVQLVESGGGLVQAGGSLRISCAASGFTFPIYAMGWYRKAPGKEREFVAAITASGDNTYYADSVKGRFTISRDNAKNTVYLQMNSLKPEDSAVYYCAADWFVDWWEYDYWGQGTQVTVSS | low polyreactivity |
| QVQLLESGGGLVQAGGSLRLSCAASGAIFFIYVMGWYRQAPGKERELVAAISGSGGPTYYADSVKVRFTISRDNAKNTVFLQMNRLKPEDTAVYYCAARGYRGRMGYWGQGTQVTVSS | low polyreactivity |
| QVQLVESGGGLVQAGGSLRLSCAASGSNFQNYAMGLYIQAPGKERELVAAISSSGTGTSYADSVKGRFTISRDNAKNTVYLQMNSLKPEDTAVYYCAADYLDYADSAYYYWGQCTQVTVSS | low polyreactivity |
| QVQLVESGGGLVQAGGSLRLSCAASGGIFGVYAMGWYRQAPGKERELVAAISQSDTSTYYADSVKGRFTISRDNAKNTVYLQMNSLKPEDTAVYYCAAEYYLDYYTWFDYWGQGTQVTVSS | high polyreactivity |
